Assay [1] has as its target LHCP (light-harvesting chlorophyll a/b binding protein), fluorescein-labeled (UniProt P07371). Description: fluorescence polarisation. For orientation: Fluorescence polarisation rises when a labelled molecule tumbles more slowly, as on binding a larger partner.
In a further assay the target is cpSRP43 (mature) (UniProt O22265). Description: fluorescence polarisation.

The record followed here is paper PMC2917185.

The Kd is the free concentration of one partner at which half of the binding sites on the other are occupied at equilibrium, for simple one-to-one binding. Read a low Kd as higher affinity. As usually defined, the Ki is a dissociation constant, usually derived from enzyme kinetics or from competition with a known ligand. Low values mean higher affinity, high ones lower affinity.

In assay [1], cpSRP43 ΔCD2 (domain or fragment) registered a Kd of 530 nM.
On the same count and under the same terms, as for cpSRP43 ΔCD3 (domain or fragment), the figure is 886 nM.
In the assay with cpSRP43 (mature), L18 peptide registered an inhibitory constant (Ki) of 2200 nM.
